± gives the uncertainty stated by the source.
Test: amyloid nucleation score (Sup35N fusion, yeast selection) (log enrichment); library NNK2; higher = more nucleation; inactive = no reads after selection
In short: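 Growth for 7 days at 30°C on medium lacking adenine and uracil followed a 24-hour induction with 100 μM copper sulfate of psi-negative yeast expressing peptides of 20 random codons fused to Sup35N. Input and output plasmid inserts were sequenced with Illumina, and sequences with under 100 input reads were excluded. Nucleation score is the DiMSum log enrichment of output over input reads, centred on the mode score of non-aggregating sequences.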

Substance	amyloid nucleation score
MNLSGVQVAMFSSQPVALTG	0.097 ± 0.63
MNRPVHSDYVYSFSLEFVVV	-0.089 ± 1.1
MNWHTSYCLFDVRAKVAGNV	-0.393 ± 1.1
MNYRCKYAQDTHLSEQSSQE	-0.799 ± 0.33
MPAFWSWSERGLSVRILGPA	3.05 ± 0.084
MPGMVTSCTVFCNQFKMETC	6.457 ± 0.061
MPPFGNDCTDREDVCMGRFV	inactive
MQTCYSDQMDFVYEAYYCTW	1.7 ± 0.1
MRKMRTMNAQWSWIIVCSFW	0.151 ± 0.63
MRLFVEFSVVLFYSFFNPFF	inactive
MRMGMLKMTFFGCSPDLKRL	-0.277 ± 0.38
MRQSNDWLFFLTNGTKCGEL	-0.162 ± 0.46
MRSDYTSWVWVCVFMLTLGV	-0.679 ± 0.32
MRTRWAVITKMFRRGWEVKV	0.753 ± 0.67
MRVNECCKAEGSQGRLARLV	0.97 ± 0.55
MRWFNNVFFGYVVSVSRSWN	-1.01 ± 1.1
MRYYWMWHKVVM	0.069 ± 0.29
MSAMPDWFPLQWNWRLGQVL	1.33 ± 0.18
MSFYPRWFSQGMLWCKHHHA	0.516 ± 0.81
MSMATTWSIFDWVEREFPFY	-0.933 ± 0.55
MSMYDAAIEFLLRCGYVRSY	0.328 ± 0.34
MSNDRDVVKVWFFPYDPHQS	-0.378 ± 0.26
MSSNYWY	-0.916 ± 1.1
MSSPD	6.596 ± 0.034

Substance	amyloid nucleation score
MSTGRCILRPFLGSPRSSVV	inactive
MSTIITALEFNG	0.188 ± 0.62
MSVSLLSDIN	-0.497 ± 1
MTMFTCMWVNRER	4.79 ± 0.057
MTQRHFLVDTGRKAR	1.22 ± 0.48
MTTYAVLGVPI	-0.421 ± 0.28
MTYIRFPLMQGHFWIMSNSK	0.181 ± 0.35
MVHMGGDDMCCGIVVWTQAP	11.85 ± 0.066
MVPGDRCPIAKNHFFPKINL	-0.335 ± 0.45
MWESQGHSLAV	inactive
MWGIRSYLVKVL	-0.291 ± 0.76
MWISFFCRRYSNIWTGFGYM	-1.09 ± 1
MWPHRFM	0.72 ± 0.28
MWRFRPLRSDTLRYDGSMGC	-0.021 ± 0.76
MWTIIMGMVILPRNRNL	3.8 ± 0.078
MWVWQEPDVWARLCLDGYEK	-0.127 ± 0.45
MYEAAGSDREVLRKYEHSSV	-0.22 ± 0.4
MYIMLFRFVRIVDLLDCLGN	0.207 ± 0.43
MYMARCKASTVSDYQNS	-0.393 ± 0.55
MYRVLAICNRTVRKG	-0.562 ± 0.61
MYRYSWHDVFCVSKCSEVS	inactive
MYYCLGILCGVSTRRGEMSC	1.17 ± 0.41
NAIYLVRMDYS	0.138 ± 0.23
NALVVLDMFLTIRSSVKGFI	inactive

Substance	amyloid nucleation score
NARICDTLVLKLLTVLLENG	3.44 ± 0.12
NARWKDVYHPLTYCFVNLWT	8.115 ± 0.034
NATEGFESFWM	inactive
NCDRPTLEMSVNRRLFSCPE	0.54 ± 0.27
NCECMRWDDF	-0.561 ± 0.38
NCFDKMHKIWLFLLSLSIFC	inactive
NCGLCGILHHL	8.14 ± 0.072
NCQRVWYCWVALSLCETCID	5.168 ± 0.047
NCSCIFKNCGFNWVFLGRIL	2.29 ± 0.17
NCSSMFCIICKKCCVDAFIL	3.73 ± 0.048
NDCRMFRELTYVPHRERC	0.708 ± 0.49
NDKTYLPGRHSYGSCYVIVW	0.561 ± 0.64
NDLESMYSEGFPLLNTAHK	inactive
NDLSWVRLSYHGLVLLGDVM	0.193 ± 0.34
NDNFLCSAIVFCMAVFRFGW	inactive
NDRRRRGCRWMVAALVSSVL	0.966 ± 0.53
NDSMDHRQSYWGLNPFVYIV	0.158 ± 0.65
NEDTAGTRRLHPRYGVADWS	0.88 ± 0.18
NEENVEVFCYRVSGSYRCYQ	4.36 ± 0.094
NEIFGTVIC	-1.12 ± 1
NELEHVFLMRYKC	inactive
NELFWFNMSFSCPKWGICNL	4.17 ± 0.043
NEPETLWFLLVVWEGINISP	0.561 ± 0.64
NFCFVWLSREYHRLALCSGV	inactive

Substance	amyloid nucleation score
NFIDRQLSILYMMFLITEC	-0.774 ± 1.1
NFMNKMFALTWCCIDKILCG	-1.1 ± 0.78
NFNGYM	-1.09 ± 0.3
NFNVQKIFNGDCDLVWRGFV	-1.31 ± 0.76
NFQMTVRYWVKDGVESQEIN	4.192 ± 0.033
NFRGTVLLAR	0.468 ± 0.74
NFSSWSER	-0.885 ± 0.54
NFYIATIRTAFLSVMAVRN	3.29 ± 0.089
NGADWATRRIWVSVRAVMGR	0.513 ± 0.32
NGCSYLERVYVVCYDDMAFG	0.336 ± 0.5
NGDMWKHIKRRQVNNRG	0.881 ± 0.67
NGFYSGDFWEADGTRLDVTC	0.053 ± 0.79
NGGSGNQVMLEVTNLVFK	5.295 ± 0.044
NGISYQRMTGNGFVESNGAS	4.683 ± 0.034
NGITDV	-0.414 ± 0.45
NGLLSRNCIWSFGFESEVEG	inactive
NGLYCFEVLLGSSAFPWTG	3.63 ± 0.082
NGLYVAIFSVNLFPPLTKYI	5.422 ± 0.053
NGRETEFQFTRVDVWNFSVM	5.065 ± 0.046
NGRLWNGFMYCGWTNWFFCV	1.11 ± 0.34
NGVDMVVAAGLSGCRWGRIR	0.249 ± 0.39
NGVRSWSQHLWKRGRWEG	1.69 ± 0.3
NGWLFFWFSIRITTSQVTSL	2.54 ± 0.098
NHCPHTKWGTTYCAHGCIHA	0.639 ± 0.46

Substance	amyloid nucleation score
NHWWIHYDDLLLAHDFLHLW	0.055 ± 0.42
NIAMSDMDILLMQRAQKWLR	1.1 ± 0.54
NIGSWGVSRLSCLYAGLANG	0.549 ± 0.42
NILVTRNNKHTSFCYTSLLL	2.22 ± 0.084
NIRNRSVNDLIRRDAYRLAL	-0.175 ± 0.8
NIRWRGNPFPCIVRNSVGEI	0.097 ± 0.31
NISGV	-0.644 ± 0.76
NISSLSNNARVIVYFCVRYQ	inactive
NITKTRHFLSLNYYNVYAFS	5.05 ± 0.056
NIWFKFPHVLNS	-0.063 ± 0.76
NKCQMSCNRRYEDMGYDRCM	0.038 ± 0.53
NKKIIYDQIFIRMGSFQLN	inactive
NKLFPAWLPMCVFWFYGFLA	-0.138 ± 0.53
NKRGQFMNMQLEKSLYFQGL	-1.15 ± 0.76
NLCDLDRGNEYAWWRVFMRS	4.38 ± 0.11
NLDVSYYVIYIKPGRYPV	6.09 ± 0.078
NLFNLSCHGLLNERKHLSGV	-0.442 ± 0.44
NLHVHL	3.64 ± 0.056
NLISKDIVLHWSRALC	0.339 ± 0.56
NLNVGALSSKWVW	inactive
NLPSWLVGRRSVWECYRLDT	0.043 ± 1
NLQRFSQPKIHRPNTMPLNV	inactive
NLRVAALAEGPRVNYRVSGW	0.69 ± 0.43
NLSFKSMYLVERWICHRKGR	1.14 ± 0.18

Substance	amyloid nucleation score
NLSFLEPLYWNEVSYFVRCC	6.369 ± 0.023
NLVTYDLE	3.79 ± 0.052
NLVYYYHLLSRIVNSYNDAL	0.811 ± 0.82
NMFGLPKLVLSDLVVRV	1.72 ± 0.15
NMIVYC	inactive
NMPMQSYTIMVWSLQGMAAG	0.705 ± 0.56
NMYTWAE	0.371 ± 0.6
NNAMWSWSS	-0.039 ± 0.41
NNFSVSFLGVDVF	-0.199 ± 0.74
NNFWFKLQIM	6.18 ± 0.064
NNINLTYRLYSVLDHYKLYE	2.66 ± 0.088
NNLHPDYDMGIGYIIDGDPA	-0.34 ± 0.62
NNSHPRNKLSWIVRLCVKLI	inactive
NNSWTDLRCVIYMSITGEPH	8.633 ± 0.044
NNVPCEKHRHASMYINAA	-0.081 ± 1.1
NPALNRLMDGVNRFPLKCYV	-0.338 ± 0.23
NPELRRGWFTWYPVGPGMKQ	0.175 ± 0.54
NPETQYASLGRS	-0.306 ± 0.38
NPFYYTGLTIPCFVYHRIKS	-0.508 ± 0.31
NPHGMLSTRSGSVFMPTIDT	-0.742 ± 1
NPINRYCVAHEKLFRNVRSV	1.87 ± 0.29
NPRFLDRCYLYYPGSASRVA	inactive
NPVMTA	-0.314 ± 0.37
NQGLRWLTDRDILRIVEVGM	0.027 ± 0.65

Substance	amyloid nucleation score
NQLVWSLNNDLGMENVGGRV	1.46 ± 0.44
NQRHVIPNSIVLWWGELDLF	0.465 ± 0.8
NQVQCKCSYKVVEVG	0.408 ± 0.2
NQWDPMFDRIPTMAALAGPG	3.4 ± 0.1
NRACFGYEDKLRAMLHLYRS	0.201 ± 0.45
NRHRWLYLRMRLYRYLEGVR	1.18 ± 0.47
NRIYVQNRPWSIPENVELTG	-0.821 ± 0.78
NRTGEYLYRRWVQSGSGGKG	0.553 ± 0.65
NRVGSSGSRYALHRVSSS	4.846 ± 0.045
NRVLVLAVGHEKFIAKMRLT	1.51 ± 0.46
NSESVICVLQGGFIRACV	-0.551 ± 0.45
NSFTLKCSKGVGYKALHLGT	2.9 ± 0.097
NSGARSTSLVNVWVLYLLDR	6.414 ± 0.055
NSIIGCYRGFC	4.63 ± 0.092
NSKKWSQGIGTYSDRAFYVF	inactive
NSKLPAEFLFFQYECMESPR	-0.758 ± 0.79
NSKYPGVLYCFYRGFGRRVY	inactive
NSLVLPDLAYLGCKMNLNFS	3.94 ± 0.074
NSLYIFMVKYP	3.96 ± 0.049
NSMILDKNRDSTNFVSCFSY	-1.6 ± 0.49
NSMPATIYFMRSPDIGFSV	2.81 ± 0.16
NSMSDLFSFSY	inactive

Reference: the supplement of paper PMC12042874
